Experiments:
[1] = biological target: T1, rHuman IGF-1 sR, (IGF-1 sR), CF (R&D Systems Cat#391-GR) (human, UniProt P08069 31-932); experiment: ECL multispot (MSD), antigen spotted, Fab in solution;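 further: purified Fab incubated 1 h at 20 °C on antigen-spotted wells, bound Fab detected via TAG detection antibody, ECL compared with each well's blank, ratio of 4 or above scored as hit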
T1 construct: Bought recombinant soluble receptor; The column head prints only 'IGF-1'; also called insulin-like growth factor-1 soluble receptor

[2] = biological target: T2, rHuman Notch-1/Fc Chimera, CF (R&D Systems Cat#3647-TK) (human, UniProt P46531 19-526); experiment: as above
T2 construct: Bought recombinant Fc chimera; Fc part of the bought chimera not given

[3] = biological target: T3, rHuman P-Cadherin/Fc Chimera, CF (R&D Systems Cat#861-PC) (human, UniProt P22223 108-654); experiment: as above
T3 construct: Bought recombinant Fc chimera; Fc part of the bought chimera not given

[4] = biological target: T4, rHuman EGF R/Fc Chimera, CF (R&D Systems Cat#344-ER) (human, UniProt P00533 25-645); experiment: as above
T4 construct: Bought recombinant Fc chimera; also called epidermal growth factor receptor; Fc part of the bought chimera not given

[5] = biological target: T5, rHuman HGF R/c-MET/Fc Chimera, CF (R&D Systems Cat#358-MT/CF) (human, UniProt P08581 25-932); experiment: as above
T5 construct: Bought recombinant Fc chimera; also called HGF R/Fc; hepatocyte growth factor receptor; Fc part of the bought chimera not given

[6] = biological target: T6, rHuman ErbB2/Fc Chimera, CF (R&D Systems Cat#1129-ER) (human, UniProt P04626 23-652); experiment: as above
T6 construct: Bought recombinant Fc chimera; also called human epidermal growth factor 2 receptor; Fc part of the bought chimera not given

[7] = biological target: T7, rHuman Erythropoietin R/Fc Chimera, CF (R&D Systems Cat#963-ER) (human, UniProt P19235 25-250); experiment: as above
T7 construct: Bought recombinant Fc chimera; also called EPO R; EPO R/Fc; Fc part of the bought chimera not given
T7 sequence (looked up): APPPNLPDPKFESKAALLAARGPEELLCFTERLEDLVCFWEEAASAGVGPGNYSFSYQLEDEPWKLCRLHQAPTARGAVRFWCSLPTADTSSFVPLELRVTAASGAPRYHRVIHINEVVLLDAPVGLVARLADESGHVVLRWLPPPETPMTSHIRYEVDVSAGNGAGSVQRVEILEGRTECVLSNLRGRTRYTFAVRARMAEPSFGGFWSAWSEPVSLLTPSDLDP

[8] = biological target: T8, rHuman CD44/Fc Chimera, CF (R&D Systems Cat#3660-CD) (human, UniProt P16070 21-220); experiment: as above
T8 construct: Bought recombinant Fc chimera; Fc part of the bought chimera not given

[9] = biological target: T9, Recombinant Human DLL4 (R&D Systems Cat#1506-D4/CF) (human, UniProt Q9NR61 27-524); experiment: ECL multispot (MSD) binding assay, antigen spotted on plate;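 further: purified Fab incubated 1 h at 20 °C on antigen spots, detected with TAG-labelled antibody, electrochemiluminescence compared with each well's blank, signal-to-blank ratio ≥4 counted as hit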
T9 construct: Bought recombinant protein; also called delta-like protein 4; rHuman DLL4

[10] = biological target: T10, rHuman P-Cadherin/Fc Chimera, CF (R&D Systems Cat#861-PC) (human, UniProt P22223 108-654); experiment: as above
T10 construct: Bought recombinant protein

[11] = biological target: T11, rHuman HGF R/c-MET/Fc Chimera, CF (R&D Systems Cat#358-MT/CF) (human, UniProt P08581 25-932); experiment: as above
T11 construct: Bought recombinant protein; also called HGF R/Fc; hepatocyte growth factor receptor

[12] = biological target: T12, rHuman IGF-1 sR, (IGF-1 sR), CF (R&D Systems Cat#391-GR) (human, UniProt P08069 31-932); experiment: as above
T12 construct: Bought recombinant soluble receptor; also called insulin-like growth factor-1 soluble receptor

[13] = biological target: T13, rHuman EGF R/Fc Chimera, CF (R&D Systems Cat#344-ER) (human, UniProt P00533 25-645); experiment: as above
T13 construct: Bought recombinant protein; also called epidermal growth factor receptor

[14] = biological target: T14, rHuman ErbB2/Fc Chimera, CF (R&D Systems Cat#1129-ER) (human, UniProt P04626 23-652); experiment: as above
T14 construct: Bought recombinant protein; also called human epidermal growth factor 2 receptor

[15] = biological target: T15, Recombinant Human DLL4 (R&D Systems Cat#1506-D4/CF) (human, UniProt Q9NR61 27-524); experiment: ECL (MSD) multispot binding assay, immobilised recombinant human DLL4, Fab at 0.04 uM
T15 construct: also called delta-like protein 4; Delta-like 4

Binder	ECL signal [1]	ECL signal [2]	ECL signal [3]	ECL signal [4]	ECL signal [5]	ECL signal [6]	ECL signal [7]	ECL signal [8]	ECL Signal/Noise [15]	further results
Fab VH1-46_IGHD6-6*01_IGHJ1*01 S102A/S103P/S104F/H111F (APFF) & L6_IGKJ1*01 (Fab, V domains shown, Tested as Fab made in E. coli: VH in Plasmid A (CH1, His6 and Flag tags), VL in Plasmid C (kappa CL); also called APFF / parent; H:APFF & L:wt) VH: QVQLVQSGAEVKKPGASVKVSCKASGYTFTSYYMHWVRQAPGQGLEWMGIINPSGGSTSYAQKFQGRVTMTRDTSTSTVYMELSSLRSEDTAVYYCAREEYAPFSAEYFQFWGQGTLVTVSS VL: not shown	–	–	–	–	–	–	–	–	–	ECL signal [9]: 172000; ECL signal [10]: 450; ECL signal [11]: 347; ECL signal [12]: 433; ECL signal [13]: 370; ECL signal [14]: 312
Fab VH1-46_IGHD6-6*01_IGHJ1*01 S102A/S103P/S104F/H111F (APFF) & L6_IGKJ1*01 S30C (Fab, V domains shown, Fab; VH cloned into Plasmid A (CH1, His6 and Flag tags) and VL into Plasmid C (kappa CL); also called APFF / S30C) VH: QVQLVQSGAEVKKPGASVKVSCKASGYTFTSYYMHWVRQAPGQGLEWMGIINPSGGSTSYAQKFQGRVTMTRDTSTSTVYMELSSLRSEDTAVYYCAREEYAPFSAEYFQFWGQGTLVTVSS VL: EIVLTQSPATLSLSPGERATLSCRASQSVCSYLAWYQQKPGQAPRLLIYDASNRATGIPARFSGSGSGTDFTLTISSLEPEDFAVYYCQQRSNWPPWTFGQGTKVEIKR	1030	1470	1690	1190	1230	1010	1790	1080	–	–
Fab VH1-46_IGHD6-6*01_IGHJ1*01 S102A/S103P/S104F/H111F (APFF) & L6_IGKJ1*01 S30L (Fab, V domains shown, Fab; VH cloned into Plasmid A (CH1, His6 and Flag tags) and VL into Plasmid C (kappa CL); also called APFF / S30L) VH: QVQLVQSGAEVKKPGASVKVSCKASGYTFTSYYMHWVRQAPGQGLEWMGIINPSGGSTSYAQKFQGRVTMTRDTSTSTVYMELSSLRSEDTAVYYCAREEYAPFSAEYFQFWGQGTLVTVSS VL: EIVLTQSPATLSLSPGERATLSCRASQSVLSYLAWYQQKPGQAPRLLIYDASNRATGIPARFSGSGSGTDFTLTISSLEPEDFAVYYCQQRSNWPPWTFGQGTKVEIKR	332	389	351	406	315	270	540	295	–	–
Fab VH5-51_IGHD5-18*01>3_IGHJ4*01 G100K/G104T (H:KT) & V3-4_IGLJ1*01 (Fab, V domains shown, Tested as purified Fab made in E. coli; also called H:KT & L:wt; KT double mutant) VH: EVQLVQSGAEVKKPGESLKISCKGSGYSFTSYWIGWVRQMPGKGLEWMGIIYPGDSDTRYSPSFQGQVTISADKSISTAYLQWSSLKASDTAMYYCARRKYSYTYDYFDYWGQGTLVTVSS VL: QTVVTQEPSFSVSPGGTVTLTCGLSSGSVSTSYYPSWYQQTPGQAPRTLIYSTNTRSSGVPDRFSGSILGNKAALTITGAQADDESDYYCVLYMGSGISYVFGTGTKVTVL	–	–	–	–	–	–	–	–	49.2	–
Fab VH5-51_IGHD5-18*01>3_IGHJ4*01 G100K/G104T (H:KT) & V3-4_IGLJ1*01 G95A (Fab, V domains shown, Fab; CH1 (His6/Flag tags, plasmid A) and lambda CL (plasmid E) as for the parent) VH: EVQLVQSGAEVKKPGESLKISCKGSGYSFTSYWIGWVRQMPGKGLEWMGIIYPGDSDTRYSPSFQGQVTISADKSISTAYLQWSSLKASDTAMYYCARRKYSYTYDYFDYWGQGTLVTVSS VL: QTVVTQEPSFSVSPGGTVTLTCGLSSGSVSTSYYPSWYQQTPGQAPRTLIYSTNTRSSGVPDRFSGSILGNKAALTITGAQADDESDYYCVLYMASGISYVFGTGTKVTVL	–	–	–	–	–	–	–	–	34.4	–
Fab VH5-51_IGHD5-18*01>3_IGHJ4*01 G100K/G104T (H:KT) & V3-4_IGLJ1*01 S96A (Fab, V domains shown, Fab; CH1 (His6/Flag tags, plasmid A) and lambda CL (plasmid E) as for the parent) VH: EVQLVQSGAEVKKPGESLKISCKGSGYSFTSYWIGWVRQMPGKGLEWMGIIYPGDSDTRYSPSFQGQVTISADKSISTAYLQWSSLKASDTAMYYCARRKYSYTYDYFDYWGQGTLVTVSS VL: QTVVTQEPSFSVSPGGTVTLTCGLSSGSVSTSYYPSWYQQTPGQAPRTLIYSTNTRSSGVPDRFSGSILGNKAALTITGAQADDESDYYCVLYMGAGISYVFGTGTKVTVL	–	–	–	–	–	–	–	–	57.9	–

The next lines start with results.

ECL signal [1]	ECL signal [2]	ECL signal [3]	ECL signal [4]	ECL signal [5]	ECL signal [6]	ECL signal [7]	ECL signal [8]	ECL Signal/Noise [15]	Binder	further results
489	349	385	283	414	316	489	404	–	Fab VH1-46_IGHD6-6*01_IGHJ1*01 S102A/S103P/S104F/H111F (APFF) & L6_IGKJ1*01 S28W (Fab, V domains shown, Fab; VH cloned into Plasmid A (CH1, His6 and Flag tags) and VL into Plasmid C (kappa CL); also called APFF / S28W) VH: QVQLVQSGAEVKKPGASVKVSCKASGYTFTSYYMHWVRQAPGQGLEWMGIINPSGGSTSYAQKFQGRVTMTRDTSTSTVYMELSSLRSEDTAVYYCAREEYAPFSAEYFQFWGQGTLVTVSS VL: EIVLTQSPATLSLSPGERATLSCRASQWVSSYLAWYQQKPGQAPRLLIYDASNRATGIPARFSGSGSGTDFTLTISSLEPEDFAVYYCQQRSNWPPWTFGQGTKVEIKR	–
357	415	543	325	312	284	496	434	–	Fab VH1-46_IGHD6-6*01_IGHJ1*01 S102A/S103P/S104F/H111F (APFF) & L6_IGKJ1*01 S30D (Fab, V domains shown, Fab; VH cloned into Plasmid A (CH1, His6 and Flag tags) and VL into Plasmid C (kappa CL); also called APFF / S30D) VH: QVQLVQSGAEVKKPGASVKVSCKASGYTFTSYYMHWVRQAPGQGLEWMGIINPSGGSTSYAQKFQGRVTMTRDTSTSTVYMELSSLRSEDTAVYYCAREEYAPFSAEYFQFWGQGTLVTVSS VL: EIVLTQSPATLSLSPGERATLSCRASQSVDSYLAWYQQKPGQAPRLLIYDASNRATGIPARFSGSGSGTDFTLTISSLEPEDFAVYYCQQRSNWPPWTFGQGTKVEIKR	–
–	–	–	–	–	–	–	–	30.3	Fab VH5-51_IGHD5-18*01>3_IGHJ4*01 G100K/G104T (H:KT) & V3-4_IGLJ1*01 L92A (Fab, V domains shown, Fab; CH1 (His6/Flag tags, plasmid A) and lambda CL (plasmid E) as for the parent) VH: EVQLVQSGAEVKKPGESLKISCKGSGYSFTSYWIGWVRQMPGKGLEWMGIIYPGDSDTRYSPSFQGQVTISADKSISTAYLQWSSLKASDTAMYYCARRKYSYTYDYFDYWGQGTLVTVSS VL: QTVVTQEPSFSVSPGGTVTLTCGLSSGSVSTSYYPSWYQQTPGQAPRTLIYSTNTRSSGVPDRFSGSILGNKAALTITGAQADDESDYYCVAYMGSGISYVFGTGTKVTVL	–
–	–	–	–	–	–	–	–	53.1	Fab VH5-51_IGHD5-18*01>3_IGHJ4*01 G100K/G104T (H:KT) & V3-4_IGLJ1*01 M94A (Fab, V domains shown, Fab; CH1 (His6/Flag tags, plasmid A) and lambda CL (plasmid E) as for the parent) VH: EVQLVQSGAEVKKPGESLKISCKGSGYSFTSYWIGWVRQMPGKGLEWMGIIYPGDSDTRYSPSFQGQVTISADKSISTAYLQWSSLKASDTAMYYCARRKYSYTYDYFDYWGQGTLVTVSS VL: QTVVTQEPSFSVSPGGTVTLTCGLSSGSVSTSYYPSWYQQTPGQAPRTLIYSTNTRSSGVPDRFSGSILGNKAALTITGAQADDESDYYCVLYAGSGISYVFGTGTKVTVL	–
–	–	–	–	–	–	–	–	32.6	Fab VH5-51_IGHD5-18*01>3_IGHJ4*01 G100K/G104T (H:KT) & V3-4_IGLJ1*01 I98A (Fab, V domains shown, Fab; CH1 (His6/Flag tags, plasmid A) and lambda CL (plasmid E) as for the parent) VH: EVQLVQSGAEVKKPGESLKISCKGSGYSFTSYWIGWVRQMPGKGLEWMGIIYPGDSDTRYSPSFQGQVTISADKSISTAYLQWSSLKASDTAMYYCARRKYSYTYDYFDYWGQGTLVTVSS VL: QTVVTQEPSFSVSPGGTVTLTCGLSSGSVSTSYYPSWYQQTPGQAPRTLIYSTNTRSSGVPDRFSGSILGNKAALTITGAQADDESDYYCVLYMGSGASYVFGTGTKVTVL	–
–	–	–	–	–	–	–	–	24.7	Fab VH5-51_IGHD5-18*01>3_IGHJ4*01 G100K/G104T (H:KT) & V3-4_IGLJ1*01 G97A (Fab, V domains shown, Fab; CH1 (His6/Flag tags, plasmid A) and lambda CL (plasmid E) as for the parent) VH: EVQLVQSGAEVKKPGESLKISCKGSGYSFTSYWIGWVRQMPGKGLEWMGIIYPGDSDTRYSPSFQGQVTISADKSISTAYLQWSSLKASDTAMYYCARRKYSYTYDYFDYWGQGTLVTVSS VL: QTVVTQEPSFSVSPGGTVTLTCGLSSGSVSTSYYPSWYQQTPGQAPRTLIYSTNTRSSGVPDRFSGSILGNKAALTITGAQADDESDYYCVLYMGSAISYVFGTGTKVTVL	–

Reference: patent US20120316071A1 (published 2012)
